Results reported in IntAct's records for PubMed 14519764.

B1: Metabotropic glutamate receptor 1 (Rattus norvegicus (Rat)), P23385 (parent)
chain: MVRLLLIFFPMIFLEMSILPRMPDRKVLLAGASSQRSVARMDGDVIIGALFSVHHQPPAEKVPERKCGEIREQYGIQRVEAMFHTLDKINADPVLLPNITLGSEIRDSCWHSSVALEQSIEFIRDSLISIRDEKDGLNRCLPDGQTLPPGRTKKPIAGVIGPGSSSVAIQVQNLLQLFDIPQIAYSATSIDLSDKTLYKYFLRVVPSDTLQARAMLDIVKRYNWTYVSAVHTEGNYGESGMDAFKELAAQEGLCIAHSDKIYSNAGEKSFDRLLRKLRERLPKARVVVCFCEGMTVRGLLSAMRRLGVVGEFSLIGSDGWADRDEVIEGYEVEANGGITIKLQSPEVRSFDDYFLKLRLDTNTRNPWFPEFWQHRFQCRLPGHLLENPNFKKVCTGNESLEENYVQDSKMGFVINAIYAMAHGLQNMHHALCPGHVGLCDAMKPIDGRKLLDFLIKSSFVGVSGEEVWFDEKGDAPGRYDIMNLQYTEANRYDYVHVGTWHEGVLNIDDYKIQMNKSGMVRSVCSEPCLKGQIKVIRKGEVSCCWICTACKENEFVQDEFTCRACDLGWWPNAELTGCEPIPVRYLEWSDIESIIAIAFSCLGILVTLFVTLIFVLYRDTPVVKSSSRELCYIILAGIFLGYVCPFTLIAKPTTTSCYLQRLLVGLSSAMCYSALVTKTNRIARILAGSKKKICTRKPRFMSAWAQVIIASILISVQLTLVVTLIIMEPPMPILSYPSIKEVYLICNTSNLGVVAPVGYNGLLIMSCTYYAFKTRNVPANFNEAKYIAFTMYTTCIIWLAFVPIYFGSNYKIITTCFAVSLSVTVALGCMFTPKMYIIIAKPERNVRSAFTTSDVVRMHVGDGKLPCRSNTFLNIFRRKKPGAGNANSNGKSVSWSEPGGRQAPKGQHVWQRLSVHVKTNETACNQTAVIKPLTKSYQGSGKSLTFSDASTKTLYNVEEEDNTPSAHFSPPSSPSMVVHRRGPPVATTPPLPPHLTAEETPLFLADSVIPKGLPPPLPQQQPQQPPPQQPPQQPKSLMDQLQGVVTNFGSGIPDFHAVLAGPGTPGNSLRSLYPPPPPPQHLQMLPLHLSTFQEESISPPGEDIDDDSERFKLLQEFVYEREGNTEEDELEEEEDLPTASKLTPEDSPALTPPSPFRDSVASGSSVPSSPVSESVLCTPPNVTYASVILRDYKQSSSTL

Variants of: B1
Details: with pp1g_rat Ppp1cc

S892A was tested. Which “effect of a mutation on the interaction” value did it give?
The value was “decreasing interaction”.
